These results are taken from PMC12209456, “Serine/threonine/tyrosine kinase 1 drives pancreatic carcinogenesis via GSK3β sequestration-mediated Wnt/β-catenin pathway hyperactivation” (Signal Transduction and Targeted Therapy, 2025).

One test deals with CyclinD1/Axin2/C-myc. Description: Wnt target gene expression (western blot, qRT-PCR). Format: cell-based, human. The note with it: PANC-1 cells, EGF (100 ng/mL) or CQ (100 μM). The protocol: Whole-cell extracts were prepared with 1% sodium dodecyl sulfate lysis buffer with freshly added 1% proteinase inhibitor cocktail (Biomake, B14001) and 1 mM phenylmethylsulfonyl fluoride (PMSF, MCE, HY-B0496). Western blot was performed as described previously.[20]
Total RNA was extracted from cultured pancreatic cancer cells using Trizol reagent (Invitrogen) according to the manufacturer’s protocol. qRT-PCR was performed as previously described.^3 The mRNA expression level for each sample was normalized to the expression of GAPDH using the 2 ^-ΔΔct method^4 with three biological replicates of comparative qRT-PCR. The following primer sequences were used for qRT-PCR: GAPDH, (forward) 5′- […] -3′ and (reverse) 5′- […] -3′; CyclinD1, (forward) 5′- […] -3′ and (reverse) 5′- […] -3′; C-myc, (forward) 5′- […] -3′ and (reverse) 5′- […] -3′; Axin2, (forward) 5′- […] -3′ and (reverse) 5′- […] -3′; STYK1, (forward) 5′- […] -3′ and (reverse) 5′- […] -3′. Amplification was performed in an ABI Q3 real-time PCR system using a SYBR Green master mix (YEASEN, 11201ES08).
For orientation: A western blot detects proteins with antibodies after separation by electrophoresis.

The subject of test [1] is β-catenin/TCF4 transcriptional activity. Description: 7TGC reporter assay. It counts as cell-based, human. The note with it: PANC-1 cells, EGF (100 ng/mL) or CQ (100 μM). On the technique in general: In a reporter assay the amount or activity of a reporter protein is the signal.
Source text: The PCR products of STYK1, GSK3β, and Axin1 were cloned into pcDNA3.1-3×HA, pCMV-3×Flag (Sigma, E4401), and pCMV-mCherry (constructed by our lab) respectively. […] To make STYK1, β-catenin, GSK3β, or BLK mutants or truncations, a series of forwarding primers harboring the desired mutations were used in PCRs. The nucleotide sequences of all constructs were confirmed by DNA sequencing. […] DNA and interference RNA were transfected with Lipofectamine 3000 (Invitrogen, L3000015) according to the manufacturer’s instructions. shRNA for STYK1 #1: 5ʹ- [sequence] -3ʹ. #2: 5ʹ- [sequence] -3ʹ. siRNA for STYK1 was 5ʹ- [sequence] -3ʹ. siRNA for β-catenin was 5ʹ- [sequence] -3ʹ. siRNA for HRS was 5ʹ- [sequence] -3ʹ, siRNA for VPS24 was 5ʹ- [sequence] -3ʹ.
The next test relates to GSK3β in MVBs. Description: Co-localization of GSK3β with Rab7 and CD63 (immunofluorescence). It counts as cell-based. The protocol: (§1) PANC-1, AsPC-1, HEK293T, or HeLa cells were ﬁxed with 4% formaldehyde for 10-15 min and then blocked with 3% BSA and 0.1% Triton X-100 in PBS for 20 min at room temperature. Immunostaining was performed using the indicated antibody. Nuclei were counterstained with DAPI. Images were taken with a Leica Inverted Confocal SP8 (Leica, Germany).

Test [2] has as its system GSK3β sequestration in Rab5+ endosomes, PANC-1 cells. The test is described as follows: Wnt-induced GSK3β within Rab5+ endosomes, PANC-1 cells. It counts as cell-based, human. The settings on record: Rab5 Q79L, n = 10. Here is the method:
as §1

B1: EGF: EGF (100 ng/mL) treatment (protein, UniProt P01133 23-1207, looked up)
Pro-epidermal growth factor: PQHWSCPEGTLAGNGNSTCVGPAPFLIFSHGNSIFRIDTEGTNYEQLVVDAGVSVIMDFHYNEKRIYWVDLERQLLQRVFLNGSRQERVCNIEKNVSGMAINWINEEVIWSNQQEGIITVTDMKGNNSHILLSALKYPANVAVDPVERFIFWSSEVAGSLYRADLDGVGVKALLETSEKITAVSLDVLDKRLFWIQYNREGSNSLICSCDYDGGSVHISKHPTQHNLFAMSLFGDRIFYSTWKMKTIWIANKHTGKDMVRINLHSSFVPLGELKVVHPLAQPKAEDDTWEPEQKLCKLRKGNCSSTVCGQDLQSHLCMCAEGYALSRDRKYCEDVNECAFWNHGCTLGCKNTPGSYYCTCPVGFVLLPDGKRCHQLVSCPRNVSECSHDCVLTSEGPLCFCPEGSVLERDGKTCSGCSSPDNGGCSQLCVPLSPVSWECDCFPGYDLQLDEKSCAASGPQPFLLFANSQDIRHMHFDGTDYGTLLSQQMGMVYALDHDPVENKIYFAHTALKWIERANMDGSQRERLIEEGVDVPEGLAVDWIGRRFYWTDRGKSLIGRSDLNGKRSKIITKENISQPRGIAVHPMAKRLFWTDTGINPRIESSSLQGLGRLVIASSDLIWPSGITIDFLTDKLYWCDAKQSVIEMANLDGSKRRRLTQNDVGHPFAVAVFEDYVWFSDWAMPSVMRVNKRTGKDRVRLQGSMLKPSSLVVVHPLAKPGADPCLYQNGGCEHICKKRLGTAWCSCREGFMKASDGKTCLALDGHQLLAGGEVDLKNQVTPLDILSKTRVSEDNITESQHMLVAEIMVSDQDDCAPVGCSMYARCISEGEDATCQCLKGFAGDGKLCSDIDECEMGVPVCPPASSKCINTEGGYVCRCSEGYQGDGIHCLDIDECQLGEHSCGENASCTNTEGGYTCMCAGRLSEPGLICPDSTPPPHLREDDHHYSVRNSDSECPLSHDGYCLHDGVCMYIEALDKYACNCVVGYIGERCQYRDLKWWELRHAGHGQQQKVIVVAVCVVVLVMLLLLSLWGAHYYRTQKLLSKNPKNPYEESSRDVRSRRPADTEDGMSSCPQPWFVVIKEHQDLKNGGQPVAGEDGQAADGSMQPTSWRQEPQLCGMGTEQGCWIPVSSDKGSCPQVMERSFHMPSYGTQTLEGGVEKPHSLLSANPLWQQRALDPPHQMELTQ
modifications: Pro-epidermal growth factor
notes: EGF (100 ng/mL) treatment
As to B1, the “STYK1-mediated alteration of the Wnt/β-catenin target genes C-myc, Axin2” value in the test on CyclinD1/Axin2/C-myc is “down-regulated STYK1-mediated alteration of the Wnt/β-catenin target genes C-myc, Axin2”. In addition, the “Wnt signaling in the 7TGC system” value in test [1] is recorded as “decreased Wnt signaling in the 7TGC system”.

B2: Wnt3a: Wnt3a, R&D systems (5036-WN) (protein, UniProt P56704 19-352, looked up)
Protein Wnt-3a: SYPIWWSLAVGPQYSSLGSQPILCASIPGLVPKQLRFCRNYVEIMPSVAEGIKIGIQECQHQFRGRRWNCTTVHDSLAIFGPVLDKATRESAFVHAIASAGVAFAVTRSCAEGTAAICGCSSRHQGSPGKGWKWGGCSEDIEFGGMVSREFADARENRPDARSAMNRHNNEAGRQAIASHMHLKCKCHGLSGSCEVKTCWWSQPDFRAIGDFLKDKYDSASEMVVEKHRESRGWVETLRPRYTYFKVPTERDLVYYEASPNFCEPNPETGSFGTRDRTCNVSSHGIDGCDLLCCGRGHNARAERRREKCRCVFHWCCYVSCQECTRVYDVHTCK
Consider B2, for which the “separation of GSK3β into MVBs” value in the test with GSK3β in MVBs (Wnt activation, discussion summary) is “supports the separation of GSK3β into MVBs”. Besides, the “co-localization of GSK3β with Rab7 and CD63” value with GSK3β in MVBs (under Wnt3a treatment) was “detectable co-localization with Rab7 and CD63”. Moreover, in test [2], the “amount of GSK3β within Rab5+ endosomes” value is listed as “remarkably increased the amount of GSK3β within Rab5^+ endosomes”.
